Measurements: patent publication US20040005648A1, “PYK2 related products and methods” (Sugen, Inc., priority 1994, published 2004)

B1: NGF: growth factor stimulus of PC12 cells (protein, UniProt P25427 122-241, looked up)
Beta-nerve growth factor: SSTHPVFHMGEFSVCDSVSVWVGDKTTATDIKGKEVTVLGEVNINNSVFKQYFFETKCRAPNPVESGCRGIDSKHWNSYCTTTHTFVKALTTDDKQAAWRFIRIDTACVCVLSRKAARRG
modifications: Beta-nerve growth factor
notes: growth factor stimulus of PC12 cells
B2: EGF: growth factor stimulus (protein, UniProt P01133 23-1207, looked up)
Pro-epidermal growth factor: PQHWSCPEGTLAGNGNSTCVGPAPFLIFSHGNSIFRIDTEGTNYEQLVVDAGVSVIMDFHYNEKRIYWVDLERQLLQRVFLNGSRQERVCNIEKNVSGMAINWINEEVIWSNQQEGIITVTDMKGNNSHILLSALKYPANVAVDPVERFIFWSSEVAGSLYRADLDGVGVKALLETSEKITAVSLDVLDKRLFWIQYNREGSNSLICSCDYDGGSVHISKHPTQHNLFAMSLFGDRIFYSTWKMKTIWIANKHTGKDMVRINLHSSFVPLGELKVVHPLAQPKAEDDTWEPEQKLCKLRKGNCSSTVCGQDLQSHLCMCAEGYALSRDRKYCEDVNECAFWNHGCTLGCKNTPGSYYCTCPVGFVLLPDGKRCHQLVSCPRNVSECSHDCVLTSEGPLCFCPEGSVLERDGKTCSGCSSPDNGGCSQLCVPLSPVSWECDCFPGYDLQLDEKSCAASGPQPFLLFANSQDIRHMHFDGTDYGTLLSQQMGMVYALDHDPVENKIYFAHTALKWIERANMDGSQRERLIEEGVDVPEGLAVDWIGRRFYWTDRGKSLIGRSDLNGKRSKIITKENISQPRGIAVHPMAKRLFWTDTGINPRIESSSLQGLGRLVIASSDLIWPSGITIDFLTDKLYWCDAKQSVIEMANLDGSKRRRLTQNDVGHPFAVAVFEDYVWFSDWAMPSVMRVNKRTGKDRVRLQGSMLKPSSLVVVHPLAKPGADPCLYQNGGCEHICKKRLGTAWCSCREGFMKASDGKTCLALDGHQLLAGGEVDLKNQVTPLDILSKTRVSEDNITESQHMLVAEIMVSDQDDCAPVGCSMYARCISEGEDATCQCLKGFAGDGKLCSDIDECEMGVPVCPPASSKCINTEGGYVCRCSEGYQGDGIHCLDIDECQLGEHSCGENASCTNTEGGYTCMCAGRLSEPGLICPDSTPPPHLREDDHHYSVRNSDSECPLSHDGYCLHDGVCMYIEALDKYACNCVVGYIGERCQYRDLKWWELRHAGHGQQQKVIVVAVCVVVLVMLLLLSLWGAHYYRTQKLLSKNPKNPYEESSRDVRSRRPADTEDGMSSCPQPWFVVIKEHQDLKNGGQPVAGEDGQAADGSMQPTSWRQEPQLCGMGTEQGCWIPVSSDKGSCPQVMERSFHMPSYGTQTLEGGVEKPHSLLSANPLWQQRALDPPHQMELTQ
modifications: Pro-epidermal growth factor
notes: growth factor stimulus

Experiments:
Shc = test: Tyrosine phosphorylation of Shc in stimulated PC12 cells (anti-Shc immunoprecipitation, anti-phosphotyrosine immunoblot); format: cell-based, rat
Description: Tyrosine phosphorylation of Shc in response to bradykinin, carbachol, PMA and other stimuli was also measured. Quiescent PC12 cells were stimulated for 5 min at 37° C. with bradykinin (1AM), carbachol (1 mM), KC1 (75 mM), PMA (1.6pM), NGF (100 ng/ml), or left unstimulated (−). The cells were also stimulated with carbachol (1 mM) or potassium chloride (75 mM) in the presence of 3 mM EGTA. Stimulations with DMPP (100 μM) or muscarine (1 mM) were preformed under the same conditions. […] The Shc proteins were immunoprecipitated with anti-Shc antibodies, the immunoprecipitates were resolved by SDS-PAGE (8%1, transferred to nitrocellulose and immunoblotted with anti-phosphotyrosine antibodies.

PYK-2 = test: Tyrosine phosphorylation of PYK-2 in NIH3T3 cell lines that overexpress PYK-2; format: cell-based, mouse; conditions: NIH3T3 cells overexpressing PYK-2 / PYK-2-HA; TPA 6 μM, 15 min at 37° C.
Description: Stable cell lines of NIH3T3 that overexpress PYK2 were established by contransfection of PYK2 subcloned into pLSV together with pSV2neo utilizing lipofectamine reagent (GIBCO BRL). Following transfection the cells were grown in Dulbecco's modified Eagle's medium containing 10% fetal bovine serum and 1 mg/ml G418. Transient transfections into 293 cells were performed by using the calcium phosphate technique (*).
The PYK-2 cDNA cloned in PLSV was cotransfected with pSV2neo into PC12 cells and NIH3T3 in order to establish stable cell lines. G418 resistant colonies were screened by immunoprecipitating and immunoblotting.
NIH3T3 cell lines were established that overexpress the PYK-2 and the PYK-2-HA protein. […] The level of phosphorylation is not so high.

Molecule | duration of stimulation of Shc phosphorylation after addition (Shc) | tyrosine phosphorylation of Shc in response to the agent (Shc) | tyrosine phosphorylation of PYK-2 in response to the agent (PYK-2)
B1 | five | induced persistent stimulation of Shc phosphorylation | –
B2 | – | – | undergoes tyrosine phosphorylation
